B1: H48A, Q6T418 (parent)
chain: MERKTFSFLFLLLLVLASDVAVERGEARTCMIKKEGWGKCLIDTTCAHSCKNRGYIGGNCKGMTRTCYCLVNC

Variants of: B1
Details: Vigna radiata; pH 7; 37 °C; GdnHCl; Fluorescence; Tris-HCl 10 mM; NaCl 100 mM; structure 1TI5; whole UniProt chain shown

H48A and N52A are within 1.5-fold of each other in “denaturant midpoint (higher = more stable)” value (“denaturant midpoint” for short): 4.33 M for the first, 3.49 M for the second.

R53A and T66A are within 1.5-fold of each other in “denaturant midpoint” value: 2.76 M for the first, 3.32 M for the second.

G36A and Y55A are within 1.5-fold of each other in “denaturant midpoint” value: 3.27 M for the first, 3.1 M for the second.

G38A and K61A are within 1.5-fold of each other in “denaturant midpoint” value: 4.66 M for the first, 3.31 M for the second.

G57A and M63A are within 1.5-fold of each other in “denaturant midpoint” value: 3.26 M for the first, 3.88 M for the second.

D43A and T64A are within 1.5-fold of each other in “denaturant midpoint” value: 2.96 M for the first, 2.98 M for the second.

V71A and S49A are within 1.5-fold of each other in “denaturant midpoint” value: 3.14 M for the first, 2.84 M for the second.

K33A and C30A C73A are within 1.5-fold of each other in “denaturant midpoint” value: 2.57 M for the first, 2.69 M for the second.

M31A and K39A are within 1.5-fold of each other in “denaturant midpoint” value: 3.66 M for the first, 2.48 M for the second.

R65A and G62A are within 1.5-fold of each other in “denaturant midpoint” value: 2.97 M for the first, 3.44 M for the second.

L70A and T44A are within 1.5-fold of each other in “denaturant midpoint” value: 4.69 M for the first, 3.32 M for the second.

K34A and Y68A are within 1.5-fold of each other in “denaturant midpoint” value: 2.53 M for the first, 3.73 M for the second.

I32A and R28A are within 1.5-fold of each other in “denaturant midpoint” value: 2.93 M for the first, 3.29 M for the second.

I56A and K51A are within 1.5-fold of each other in “denaturant midpoint” value: 3.32 M for the first, 2.81 M for the second.

T45A and I42A are within 1.5-fold of each other in “denaturant midpoint” value: 4.5 M for the first, 3.87 M for the second.

With N59A the “denaturant midpoint” value was 2.64 M.

Reference: FireProtDB (doi:10.1002/pro.164)
